Assay results reported in US20060257938A1, “Method of screening for drugs that block ligand binding to a lipid binding protein” (priority 2005, published 2006).
Values joined by “and” are separate entries in the source; they are usually repeats but may differ in a detail not shown here. Equal entries are not always repeated.

Experiments:
Type in all cases: binding
Conditions in all cases: response relative to ADIFAB2
[1] = Probe fluorescence ratio response to arachidonic acid relative to ADIFAB2
Method in brief: (§1)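 Each fatty acid's response was expressed relative to ADIFAB2, the rI-FABP-L72A probe, as ΔR/ΔRreference. ΔR is the change in the background-corrected two-wavelength intensity ratio R=Fλ1/Fλ2 from its analyte-free baseline R0. Emission was read near about 420-480 nm for unbound and about 495-580 nm for FFA-bound probe.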

[2] = Probe fluorescence ratio response to linolenic acid relative to ADIFAB2
Method in brief: as §1

[3] = Probe fluorescence ratio response to linoleic acid relative to ADIFAB2
Method in brief: as §1

[4] = Probe fluorescence ratio response to oleic acid relative to ADIFAB2
Method in brief: as §1

[5] = Probe fluorescence ratio response to palmitic acid relative to ADIFAB2
Method in brief: as §1

| Molecule | DR/DR AA ([1]; Arachidonic acid) | DR/DR LNA [2] | DR/DR LA [3] | DR/DR OA [4] | DR/DR PA [5] | DR/DR AA ([1]; arachidonic acid) |
| --- | --- | --- | --- | --- | --- | --- |
| 55S1, 72A (protein, listed as Rattus norvegicus, PEPTIDE (1)...(131) wild-type rat intestinal fatty acid binding protein) AFDGTWKVDRNENYEKFMEKMGINVVKRKLGAHDNLKLTITQEGNKFTVKESSNSRNIDVVFELGVDFAYSAADGTELTGTWTMEGNKLVGKFKRVDNGKELIAVREISGNELIQTYTYEGVEAKRIFKKE | 0.48 | 0.43 | 0.42 | 0.41 | 0.41 |  |
| 55W2, 72A (protein, listed as Rattus norvegicus, PEPTIDE (1)...(131) wild-type rat intestinal fatty acid binding protein) AFDGTWKVDRNENYEKFMEKMGINVVKRKLGAHDNLKLTITQEGNKFTVKESSNWRNIDVVFELGVDFAYSAADGTELTGTWTMEGNKLVGKFKRVDNGKELIAVREISGNELIQTYTYEGVEAKRIFKKE | 0.77 | 0.82 | 0.79 | 0.70 | 0.63 |  |
| 60N, 72A (protein, listed as Rattus norvegicus, PEPTIDE (1)...(131) wild-type rat intestinal fatty acid binding protein) AFDGTWKVDRNENYEKFMEKMGINVVKRKLGAHDNLKLTITQEGNKFTVKESSNFRNIDNVFELGVDFAYSAADGTELTGTWTMEGNKLVGKFKRVDNGKELIAVREISGNELIQTYTYEGVEAKRIFKKE | 1.24 | 1.59 | 1.57 | 1.54 | 1.30 |  |
| 60I, 72A (protein, listed as Rattus norvegicus, PEPTIDE (1)...(131) wild-type rat intestinal fatty acid binding protein) AFDGTWKVDRNENYEKFMEKMGINVVKRKLGAHDNLKLTITQEGNKFTVKESSNFRNIDIVFELGVDFAYSAADGTELTGTWTMEGNKLVGKFKRVDNGKELIAVREISGNELIQTYTYEGVEAKRIFKKE | 1.54 | 1.63 and 1.632 | 1.73 | 1.72 and 1.723 | 1.52 | 1.539 |
| 60R, 72A (protein, listed as Rattus norvegicus, PEPTIDE (1)...(131) wild-type rat intestinal fatty acid binding protein) AFDGTWKVDRNENYEKFMEKMGINVVKRKLGAHDNLKLTITQEGNKFTVKESSNFRNIDRVFELGVDFAYSAADGTELTGTWTMEGNKLVGKFKRVDNGKELIAVREISGNELIQTYTYEGVEAKRIFKKE | 0.14 | 0.14 | 0.12 | 0.13 | 0.08 |  |
| 60L, 72A (protein, listed as Rattus norvegicus, PEPTIDE (1)...(131) wild-type rat intestinal fatty acid binding protein) AFDGTWKVDRNENYEKFMEKMGINVVKRKLGAHDNLKLTITQEGNKFTVKESSNFRNIDLVFELGVDFAYSAADGTELTGTWTMEGNKLVGKFKRVDNGKELIAVREISGNELIQTYTYEGVEAKRIFKKE | 1.08 | 1.26 | 1.29 and 1.285 | 1.27 and 1.272 | 1.10 and 1.095 | 1.075 |
| 55Y3, 72A (protein, listed as Rattus norvegicus, PEPTIDE (1)...(131) wild-type rat intestinal fatty acid binding protein) AFDGTWKVDRNENYEKFMEKMGINVVKRKLGAHDNLKLTITQEGNKFTVKESSNYRNIDVVFELGVDFAYSAADGTELTGTWTMEGNKLVGKFKRVDNGKELIAVREISGNELIQTYTYEGVEAKRIFKKE | 0.47 | 0.34 | 0.32 | 0.33 | 0.25 |  |
| 60K, 72A (protein, listed as Rattus norvegicus, PEPTIDE (1)...(131) wild-type rat intestinal fatty acid binding protein) AFDGTWKVDRNENYEKFMEKMGINVVKRKLGAHDNLKLTITQEGNKFTVKESSNFRNIDKVFELGVDFAYSAADGTELTGTWTMEGNKLVGKFKRVDNGKELIAVREISGNELIQTYTYEGVEAKRIFKKE | 0.46 | 0.57 and 0.582 | 0.62 and 0.619 | 0.60 and 0.626 | 0.35 and 0.310 | 0.461 |
| 60Q, 72A (protein, listed as Rattus norvegicus, PEPTIDE (1)...(131) wild-type rat intestinal fatty acid binding protein) AFDGTWKVDRNENYEKFMEKMGINVVKRKLGAHDNLKLTITQEGNKFTVKESSNFRNIDQVFELGVDFAYSAADGTELTGTWTMEGNKLVGKFKRVDNGKELIAVREISGNELIQTYTYEGVEAKRIFKKE | 0.36 | 0.42 | 0.41 | 0.41 | 0.35 |  |
| 60A, 72A (protein, listed as Rattus norvegicus, PEPTIDE (1)...(131) wild-type rat intestinal fatty acid binding protein) AFDGTWKVDRNENYEKFMEKMGINVVKRKLGAHDNLKLTITQEGNKFTVKESSNFRNIDAVFELGVDFAYSAADGTELTGTWTMEGNKLVGKFKRVDNGKELIAVREISGNELIQTYTYEGVEAKRIFKKE | 0.79 | 0.94 and 0.938 | 0.98 and 0.977 | 0.94 and 0.936 | 0.74 and 0.742 | 0.787 |
| 60C, 72A (protein, listed as Rattus norvegicus, PEPTIDE (1)...(131) wild-type rat intestinal fatty acid binding protein) AFDGTWKVDRNENYEKFMEKMGINVVKRKLGAHDNLKLTITQEGNKFTVKESSNFRNIDCVFELGVDFAYSAADGTELTGTWTMEGNKLVGKFKRVDNGKELIAVREISGNELIQTYTYEGVEAKRIFKKE | 1.30 | 1.36 | 1.33 | 1.34 | 1.04 |  |
| 60G, 72A (protein, listed as Rattus norvegicus, PEPTIDE (1)...(131) wild-type rat intestinal fatty acid binding protein) AFDGTWKVDRNENYEKFMEKMGINVVKRKLGAHDNLKLTITQEGNKFTVKESSNFRNIDGVFELGVDFAYSAADGTELTGTWTMEGNKLVGKFKRVDNGKELIAVREISGNELIQTYTYEGVEAKRIFKKE | 0.29 | 0.24 | 0.25 | 0.24 | 0.19 |  |
| 55T1, 72A (protein, listed as Rattus norvegicus, PEPTIDE (1)...(131) wild-type rat intestinal fatty acid binding protein) AFDGTWKVDRNENYEKFMEKMGINVVKRKLGAHDNLKLTITQEGNKFTVKESSNTRNIDVVFELGVDFAYSAADGTELTGTWTMEGNKLVGKFKRVDNGKELIAVREISGNELIQTYTYEGVEAKRIFKKE | 1.26 | 1.27 | 1.25 | 1.28 | 1.12 |  |
| 60F, 72A (protein, listed as Rattus norvegicus, PEPTIDE (1)...(131) wild-type rat intestinal fatty acid binding protein) AFDGTWKVDRNENYEKFMEKMGINVVKRKLGAHDNLKLTITQEGNKFTVKESSNFRNIDFVFELGVDFAYSAADGTELTGTWTMEGNKLVGKFKRVDNGKELIAVREISGNELIQTYTYEGVEAKRIFKKE | 1.79 | 1.76 and 1.762 | 1.68 and 1.684 | 1.90 and 1.896 | 1.53 and 1.526 | 1.792 |
| 60M, 72A (protein, listed as Rattus norvegicus, PEPTIDE (1)...(131) wild-type rat intestinal fatty acid binding protein) AFDGTWKVDRNENYEKFMEKMGINVVKRKLGAHDNLKLTITQEGNKFTVKESSNFRNIDMVFELGVDFAYSAADGTELTGTWTMEGNKLVGKFKRVDNGKELIAVREISGNELIQTYTYEGVEAKRIFKKE | 0.77 | 0.93 | 1.01 | 0.91 | 0.76 |  |
| 60P, 72A (protein, listed as Rattus norvegicus, PEPTIDE (1)...(131) wild-type rat intestinal fatty acid binding protein) AFDGTWKVDRNENYEKFMEKMGINVVKRKLGAHDNLKLTITQEGNKFTVKESSNFRNIDPVFELGVDFAYSAADGTELTGTWTMEGNKLVGKFKRVDNGKELIAVREISGNELIQTYTYEGVEAKRIFKKE | 0.62 | 0.77 | 0.81 | 0.81 | 0.37 |  |
| 60H, 72A (protein, listed as Rattus norvegicus, PEPTIDE (1)...(131) wild-type rat intestinal fatty acid binding protein) AFDGTWKVDRNENYEKFMEKMGINVVKRKLGAHDNLKLTITQEGNKFTVKESSNFRNIDHVFELGVDFAYSAADGTELTGTWTMEGNKLVGKFKRVDNGKELIAVREISGNELIQTYTYEGVEAKRIFKKE | 0.17 | 0.18 | 0.17 | 0.17 | 0.12 |  |
